Measurements: patent US20030148956A1 (PROCTER AND GAMBLE, published 2003)
Ends that are not written are not given here.

T1: corticotropin releasing factor 2 receptor
T1 sequence (Q13324 whole entry, species assumed, looked up): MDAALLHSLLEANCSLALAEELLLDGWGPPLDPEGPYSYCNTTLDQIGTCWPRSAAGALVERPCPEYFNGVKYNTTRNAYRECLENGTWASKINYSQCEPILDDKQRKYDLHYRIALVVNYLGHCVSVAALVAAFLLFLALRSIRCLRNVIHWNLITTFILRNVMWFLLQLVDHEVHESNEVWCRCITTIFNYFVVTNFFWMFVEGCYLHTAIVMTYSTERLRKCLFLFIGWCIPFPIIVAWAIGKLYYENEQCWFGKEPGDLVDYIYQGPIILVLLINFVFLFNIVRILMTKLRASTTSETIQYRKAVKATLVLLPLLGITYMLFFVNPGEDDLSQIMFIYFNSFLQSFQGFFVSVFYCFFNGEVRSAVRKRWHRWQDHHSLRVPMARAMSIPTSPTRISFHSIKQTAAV

T2: CRF2R
T2 sequence (Q13324 whole entry, species assumed, looked up): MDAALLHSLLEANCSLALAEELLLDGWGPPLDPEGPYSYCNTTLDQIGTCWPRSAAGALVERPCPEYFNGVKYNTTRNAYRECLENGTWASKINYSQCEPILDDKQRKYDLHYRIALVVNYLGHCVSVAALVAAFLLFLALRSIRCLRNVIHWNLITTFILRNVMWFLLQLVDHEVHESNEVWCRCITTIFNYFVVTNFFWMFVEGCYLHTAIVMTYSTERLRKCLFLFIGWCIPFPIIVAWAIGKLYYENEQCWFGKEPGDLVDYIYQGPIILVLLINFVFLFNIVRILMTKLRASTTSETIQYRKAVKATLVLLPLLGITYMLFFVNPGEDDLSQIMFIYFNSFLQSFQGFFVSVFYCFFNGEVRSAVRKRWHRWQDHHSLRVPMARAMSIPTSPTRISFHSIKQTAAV


What was measured:
Test in all cases: cell-based or functional assay
[1] = target: corticotropin releasing factor 1 receptor
[2] = target: T1, corticotropin releasing factor 2 …
[3] = target: CRF1R
[4] = target: T2, CRF2R

Row | Binder | CRF1R EC50 [1] | CRF1R Emax % [1] | CRF2R EC50 [2] | CRF2R Emax % [2] | CRF1R EC50 [3] | CRF1R Emax [3] | CRF2R EC50 [4] | CRF2R Emax [4]
1 | ZGPPISIDLPYLLLRKMIEIEKQEKEKQQAANNRLLLDTI (C-terminal amide) [SEQ ID NO 203] |  |  |  |  | 76.2 nM | 86% | 5.2 nM | 94%
2 | ZGPPISIDLPYQLLRKMIEIEKQEKEKQQAANNRLLLDTI (C-terminal amide) [SEQ ID NO 202] |  |  |  |  | 404 nM | 100% | 8.7 nM | 99%
3 | ZGPPISIDLPQILLRKMIEIEKQEKEKQQAANNRLLLDTI (C-terminal amide) [SEQ ID NO 199] |  |  |  |  | 706 nM | 93% | 8.5 nM | 92%
4 | ZGPPISIDLPYVLLRKMIEIEKQEKEKQQAANNRLLLDTI (C-terminal amide) [SEQ ID NO 201] |  |  |  |  | 99.6 nM | 80% | 5 nM | 100%
5 | ZGPPISIDLPITLLRKMIEIEKQEKEKQQAANNRLLLDTI (C-terminal amide) [SEQ ID NO 24] |  |  |  |  | > 1000 nM | 18% | 43.1 nM | 100%
6 | ZGPPISIDLPQLLLRKMIEIEKQEKEKQQAANNRLLLDTI (C-terminal amide) [SEQ ID NO 196] |  |  |  |  | 447 nM | 96% | 27.7 nM | 97%
7 | ZGPPISIDLPQHLLRKMIEIEKQEKEKQQAANNRLLLDTI (C-terminal amide) [SEQ ID NO 207] |  |  |  |  | 466 nM | 88% | 61.4 nM | 96%
8 | ZGPPISIDLPLILLRKMIEIEKQEKEKQQAANNRLLLDTI (C-terminal amide) [SEQ ID NO 194] |  |  |  |  | 106 nM | 94% | 5 nM | 96%
9 | ZGPPISIDLPYILLRKMIEIEKQEKEKQQAANNRLLLDTI (C-terminal amide) [SEQ ID NO 204] |  |  |  |  | 32.1 nM | 74% | 3.6 nM | 93%
10 | ZGPPISIDLPYTLLRKMIEIEKQEKEKQQAANNRLLLDTI (C-terminal amide) [SEQ ID NO 200] |  |  |  |  | 188 nM | 99% | 8.8 nM | 100%
11 | ZGPPISIDLPYHLLRKMIEIEKQEKEKQQAANNRLLLDTI (C-terminal amide) [SEQ ID NO 208] |  |  |  |  | 64.9 nM | 81% | 5.6 nM | 88%
12 | ZGPPISIDLPHHLLRKMIEIEKQEKEKQQAANNRLLLDTI (C-terminal amide) [SEQ ID NO 205] |  |  |  |  | 126 nM | 88% | 25 nM | 93%
13 | ZGPPISIDLPIWLLRKMIEIEKQEKEKQQAANNRLLLDTI (C-terminal amide) [SEQ ID NO 192] |  |  |  |  | 562 nM | 99% | 66.8 nM | 97%
14 | ZGPPISIDLPWHLLRKMIEIEKQEKEKQQAANNRLLLDTI (C-terminal amide) [SEQ ID NO 209] |  |  |  |  | 26.4 nM | 80% | 7.4 nM | 93%
15 | ZGPPISIDLPLVLLRKMIEIEKQEKEKQQAANNRLLLDTI (C-terminal amide) [SEQ ID NO 193] |  |  |  |  | 266 nM | 95% | 10.1 nM | 97%
16 | ZGPPISIDLPAHLLRKMIEIEKQEKEKQQAANNRLLLDTI (C-terminal amide) [SEQ ID NO 206] |  |  |  |  | 696 nM | 97% | 30.5 nM | 97%
17 | ZGPPISIDLPLFLLRKMIEIEKQEKEKQQAANNRLLLDTI (C-terminal amide) [SEQ ID NO 195] |  |  |  |  | 103 nM | 93% | 18.8 nM | 
18 | ZGPPISIDLPFQLLRKMIEIEKQEKEKQQATTNARLLDTV (C-terminal amide) [SEQ ID NO 20] |  |  |  |  | 906 nM | 60% | 7.81 nM | 99%
19 | ZGPPISIDLPFQLLRKMIEIEKQEKEKQQATTNARLLATV (C-terminal amide) [SEQ ID NO 21] |  |  |  |  | 908 nM | 88% | 8.46 nM | 96%
20 | ZGPPISIDLPFQLLRKMIEIEKQEKEKQQATTNARLLARV (C-terminal amide) [SEQ ID NO 23] |  |  |  |  | 1000 nM | 82% | 10.2 nM | 100%
21 | ZGPPISIDLPFQLLRKMIEIEKQEKEKQQATTNARLLDRV (C-terminal amide) [SEQ ID NO 22] |  |  |  |  | 1000 nM | 64% | 8.33 nM | 100%

Continued, values first:

Row | CRF1R EC50 [1] | CRF1R Emax % [1] | CRF2R EC50 [2] | CRF2R Emax % [2] | CRF1R EC50 [3] | CRF1R Emax [3] | CRF2R EC50 [4] | CRF2R Emax [4] | Binder
22 | 820 nM | 83.6% | 100 nM | 65% |  |  |  |  | NDDPPISIDLPLHLLRNMIEMARIENEREQAGLNAKYLAEV-NH2 [SEQ ID NO 259]
23 | 274 nM | 100% | 100 nM | 95.3% |  |  |  |  | NDDPPISIDLPFYLLRNMIEMARIENEREQAGLNAKYLAEV-NH2 [SEQ ID NO 261]
24 | 1000 nM | 4.45% | 100 nM | 19.4% |  |  |  |  | NDDPPISIDLPTYLLRNMIEMARIENEREQAGLNAKYLAEV-NH2 [SEQ ID NO 266]
25 | 254 nM | 100% | 12.6 nM | 100% |  |  |  |  | ZGPPISIDVPFQLLRKMIEIEKQEKEKQQAANNRLLLDTI (C-terminal amide) [SEQ ID NO 256]
26 |  |  |  |  | 826 nM | 37% | 59.5 nM | 100% | ZGPPISIDLPAQLLRKMIEIEKQEKEKQQAANNRLLLDTI (C-terminal amide) [SEQ ID NO 211]
27 |  |  |  |  | 43.5 nM | 90% | 10.2 nM | 97% | ZGPPISIDLPWQLLRKMIEIEKQEKEKQQAANNRLLLDTI (C-terminal amide) [SEQ ID NO 210]
28 | 1000 nM | 22.8% | 100 nM | 44.2% |  |  |  |  | NDDPPISIDLPYYLLRNMIEMARIENEREQAGLNAKYLAEV-NH2 [SEQ ID NO 267]
29 | 1000 nM | 9.3% | 100 nM | 23.4% |  |  |  |  | NDDPPISIDLPQYLLRNMIEMARIENEREQAGLNAKYLAEV-NH2 [SEQ ID NO 265]
30 | 802 nM | 72% | 36.2 nM | 93% |  |  |  |  | DNPSLSIDLPYYLLRTLLELARTQSQRERAEQNAIIFASV-NH2 [SEQ ID NO 263]
31 | 1000 nM | 14.2% | 100 nM | 59% |  |  |  |  | NDDPPISIDLPLLLLRNMIEMARIENEREQAGLNAKYLAEV-NH2 [SEQ ID NO 268]
32 | 1000 nM | 23.6% | 100 nM | 49.3% |  |  |  |  | NDDPPISIDLPFQLLRNMIEMARIENEREQAGLNAKYLAEV-NH2 [SEQ ID NO 258]
33 | 408 nM | 100% | 100 nM | 92.2% |  |  |  |  | NDDPPISIDLPFHLLRNMIEMARIENEREQAGLNAKYLAEV-NH2 [SEQ ID NO 262]
34 | 834 nM | 89.7% | 100 nM | 89.3% |  |  |  |  | NDDPPISIDLPFLLLRNMIEMARIENEREQAGLNAKYLAEV-NH2 [SEQ ID NO 260]
35 | 704 nM | 100% | 100 nM | 66.3% |  |  |  |  | NDDPPISIDLPFFLLRNMIEMARIENEREQAGLNAKYLAEV-NH2 [SEQ ID NO 264]
36 | 744 nM | 83.5% | 100 nM | 72.6% |  |  |  |  | NDDPPISIDLPLFLLRNMIEMARIENEREQAGLNAKYLAEV-NH2 [SEQ ID NO 257]
